Reference: the supplement of paper PMC11865577

Columns and labels:
Experiment in all cases: pull-down binding Z-score (relative to library population); higher = stronger binding
[1] = tested on: TO-N3-2 (biotin conjugate); conditions: RNA library: Library-2
Summary of the method: (§1)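 The RNA library, end-labelled with Cy5 or Cy3, was heat-folded in phosphate/NaCl/KCl buffer, and 1 μg was incubated at 25 °C for 60 min with streptavidin beads carrying 100 pmol of biotin-conjugated small molecule. Hot SDS released the bound RNA, which was then hybridised to a DNA barcode microarray for 20 h at 55.5 °C. For scoring binding, signal from beads alone was subtracted, replicate barcoded probes were averaged after discarding the highest and lowest, and each value was turned into a Z-score from the library mean and standard deviation.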

TO-N3 (biotin conjugate) = conditions: RNA library: Library-2
Summary of the method: as §1

[2] = tested on: TO-3-N3-2 (biotin conjugate); conditions: RNA library: Library-2
Summary of the method: as §1

[3] = tested on: TO-3-N3 (biotin conjugate); conditions: RNA library: Library-2
Summary of the method: as §1

[4] = tested on: G-clamp-N3 (biotin conjugate); conditions: RNA library: Library-1 (pre-miRNA loops + repeats)
Summary of the method: as §1

Sequence	pull-down binding Z-score [1]	pull-down binding Z-score (TO-N3 (biotin conjugate))	pull-down binding Z-score [2]	pull-down binding Z-score [3]	pull-down binding Z-score [4]
CCUGCCUGCCCUCCAGGUCAUGUUCCAGUGUCCCACAGAUGCAGCACCACGG [hsa-mir-6075]	1.54	0.616	0.186	0.0521	-0.799
CCUGCUGUGUGAAACAAAAGUAAG [hsa-mir-302c]	0.474	0.103	0.0469	-0.422	-1.08
CCUGGAGAGCUGCUGUCUCCAG [hsa-mir-6746]	0.355	0.0297	-0.596	-0.114	1.35
CCUGUAUGUCUCCCCGCAGCACCGUCAUCGU [hsa-mir-6774]	0.832	0.785	0.182	0.498	-1.39
CCUGUCCUAUGACAAACAUGGCAGG [hsa-mir-3927]	-0.673	-0.547	-0.497	-0.564	-0.521
CCUGUUUGAAUAUUUCACCAGAAACAGG [hsa-mir-4433b]	-0.74	-0.402	-0.044	-0.311	1.2
CCUGUUUUACAAAUAAGGAAAUAAACUCAGG [hsa-mir-1321]	-1.08	-0.94	-0.326	-0.59	-1.01
CCUUAGCACUAGCAGGAGG [hsa-mir-612]	0.00744	-0.556	-0.482	-0.588	0.101
CCUUCCAAUACCUGUAAGCAGAAGG [hsa-mir-3158-2]	0.397	0.0957	0.0627	0.0988	0.355
CCUUCGCUUUAUUUGUGACGAAUC [hsa-mir-154]	-0.185	-0.676	-0.374	-0.799	-0.922
CCUUCUAAUGAGUAUGCUUAACUUGGUAGAAGG [hsa-mir-3914-1]	-0.858	-0.141	-0.0963	-0.108	0.508
CCUUCUACCAAGUUAAGCAUACUCAUUAGAAGG [hsa-mir-3914-2]	-0.346	0.418	-0.151	0.653	-0.275
CCUUCUCCUCUUUGCAGUGAUAAAGGAGG [hsa-mir-4460]	-0.549	-0.61	-0.351	-0.304	-0.412
CCUUCUGCUUACAGGUAUUGGAAGG [hsa-mir-3158-1]	-0.685	-0.371	-0.401	-0.281	0.832
CCUUCUGUAUACAUGUAUACAGGAGGAAGG [hsa-mir-4716]	0.00714	0.495	0.0583	0.507	0.64
CCUUGCCUGUGGCAAGACCACUUCGGUUCAAGG [hsa-mir-4295]	0.237	0.0379	-0.191	0.0272	0.54
CCUUGUGAAUGUCGGGCAAUGG [hsa-mir-4701]	0.503	0.267	0.357	-0.0355	1.59
CCUUUCCCCUCAGACCAAGG [hsa-mir-3131]	-0.176	-0.412	-0.26	-0.315	-0.0682
CCUUUGUGAGCAGUGUGACCCAAGGCCUGUGGACAGGG [hsa-mir-555]	1.15	0.241	-0.351	-0.0854	0.911
CGACUCCGUGGCAGAGUUCA [hsa-mir-3666]	0.845	0.805	-0.00234	0.331	-1.1
CGAGAAGCGCCUGCGUCUCCCAUUUUCG [hsa-mir-3944]	1.37	0.763	0.16	0.199	-1
CGAGACACAGAAACAGACACCUGCCCUCGA [hsa-mir-151b]	1.69	1.21	0.464	0.442	-2.29
CGAGCCGCUUCCUCACGGCUCG [hsa-mir-4665]	-0.871	-1.04	-0.853	-0.622	0.651
CGAGGUGG [hsa-mir-4302]	0.675	0.973	-0.0533	0.954	-0.91
CGAGGUGGGCUAGGCUCGGGCCCGUGGCG [hsa-mir-3656]	2.8	1.7	0.185	0.715	2.89

Sequence	pull-down binding Z-score [1]	pull-down binding Z-score (TO-N3 (biotin conjugate))	pull-down binding Z-score [2]	pull-down binding Z-score [3]	pull-down binding Z-score [4]
CGAGUCUGAGCCUUUAAAAGCCACUCU [hsa-mir-1287]	0.586	0.0262	-0.012	-0.321	-1.4
CGAUAAACCCCUAAAUAGGGACUUUCCCG [hsa-mir-484]	-0.157	-0.511	-0.266	-0.473	-0.934
CGCCAGCUCGCUGACAGCACGACUCAGGGCG [hsa-mir-658]	1.15	0.25	0.383	-0.127	0.902
CGCGCCCGGCCUAACUUUUAAGAAACGUCGGCCCGGGAGCG [hsa-mir-5095]	1.15	1.27	0.695	1.24	-0.0298
CGCGCGUCGAGUCAGCCGUGUG [hsa-mir-933]	0.532	0.126	-0.276	-0.126	1.31
CGCGGAGCAGCGCUGGGUGCAGCGCCUG [hsa-mir-4508]	1.5	0.334	-0.27	-0.051	-0.567
CGCGGGCGGGUCCCAGGCUGGGCCCCUCGGAGGCCGGGUGCUCACUGCCCCGUCCCGG [hsa-mir-6789]	4.13	1.7	-0.0304	0.75	0.322
CGCUAGUAGUGGCG [hsa-mir-3960]	-0.869	-0.435	-0.644	-0.152	0.808
CGCUGAUGUGCAUUCAACUCAUUCUCAGCA [hsa-mir-1468]	0.000597	0.0154	-0.226	-0.116	-1.2
CGCUGCCUGGAAUUAACCCCGCUGUG [hsa-mir-636]	0.891	0.517	-0.249	0.493	-1.15
CGCUGCUGGCUGCCUUCCAGCG [hsa-mir-4533]	0.26	0.079	-0.568	0.221	0.074
CGGAAUUCUCCAGAGCCUCUG [hsa-mir-6889]	0.584	0.453	0.0162	0.188	-0.773
CGGACACCCGGCCUCCACUUUCUGUGGCAGGUACCUCCUCCA [hsa-mir-4505]	1.47	1.05	0.209	0.675	0.149
CGGACGUUGCUCUCUACCCCG [hsa-mir-1247]	1.03	0.839	0.262	0.389	-0.101
CGGAGCAGUCACGUUGACGGAAUCCUCCG [hsa-mir-3183]	0.498	0.329	-0.255	0.234	0.489
CGGAGCCUCGCAGGGUCGGGCUCGGGCUCCCUAACCGUCUCCGCUUCUUC [hsa-mir-6084]	1.77	1.36	0.558	0.896	-0.288
CGGAUCUCGAGGGUGCUUAUUGUUCGGUCCG [hsa-mir-615]	0.351	0.185	0.219	0.418	1.11
CGGCGGCGGCGGCGGCGGCGGCGGCGGCGGCGGCGGCGGCGGCGGCGG [G4_r(CGG)16]	5.03	6.82	9.63	8.23	-0.145
CGGGAACCUGCCUCCCG [hsa-mir-596]	-0.232	0.0562	-0.195	0.264	-0.566
CGGGCCCCUCCCCUCAAUGGGCCCG [hsa-mir-5685]	-0.886	-0.493	-0.162	-0.255	0.108
CGGGCUGAUUGCGCUAACAGUGGCCCC [hsa-mir-4783]	1.12	0.248	-0.117	-0.256	-0.491
CGGGGCGGACGCAGAGCCGCGUUUAGUCUAUCG [hsa-mir-639]	1.12	0.593	-0.137	0.0365	-0.413
CGGGGGGGGCCCGGGGACGGCUUGGGCCUGCCUAGUCGG [hsa-mir-1234]	2.4	2.73	1.32	2.08	1.65
CGGUACCCACUGCUGAGGGUGGGGACCA [hsa-mir-3691]	0.687	0.55	-0.291	0.628	-0.0994
CGGUCCCAUAUUGAACUCG [hsa-mir-4444-1_4444-2]	-0.109	-0.4	-0.418	-0.626	-1.03

Sequence	pull-down binding Z-score [1]	pull-down binding Z-score (TO-N3 (biotin conjugate))	pull-down binding Z-score [2]	pull-down binding Z-score [3]	pull-down binding Z-score [4]
CGGUCGGAUAAUCACAUGACGAG [hsa-mir-2114]	0.592	-0.0316	-0.221	-0.513	0.425
CGGUGGUCCCUCCCG [hsa-mir-3687-1_3687-2]	0.832	0.14	-0.108	0.0703	-0.273
CGGUGUGCAAAUGUGUGUGUGCGGUGUUAUGCCG [hsa-mir-4442]	-0.316	-0.869	-0.663	-0.732	-0.0251
CGUACGCUUUAUCUGUGACGUAUG [hsa-mir-411]	-0.0511	-0.611	-0.338	-0.61	0.625
CGUAGGCGUUAUGAUUUCUGACCUAUG [hsa-mir-379]	0.473	0.0365	-0.261	-0.513	-0.994
CGUAUGUGUAUAUAAAUGUAUACG [hsa-mir-1277]	-1.36	-1.29	-0.547	-0.965	0.912
CGUGCAAGUUUAAGUUUUUGCACG [hsa-mir-4445]	-0.688	0.282	-0.0878	0.314	0.55
CGUGCACGUACCUGUCACAUGUGUACG [hsa-mir-3939]	-0.599	-0.867	-0.599	-0.72	-0.021
CGUGCGCCAGUGGAG [hsa-mir-6089-2_6089-1]	0.982	0.573	-0.139	0.0799	-0.0599
CGUGCUCAGCUUGGCACCCAAGUUCUGC [hsa-mir-7704]	1.39	0.485	-0.12	-0.129	-0.0193
CGUUCCAAUGCGACACCUCUAGAGUGUCAUCCCCUAGAAUGUCACCUUGGAAAG [hsa-mir-4432]	-0.0713	-0.0844	-0.104	-0.119	-1.26
CGUUCGCUUUAUUUAUGGCGCACA [hsa-mir-323a]	0.118	-0.267	-0.271	-0.155	-0.817
CGUUGAGUGGGCACCCGAGAAGCCAUCG [hsa-mir-425]	1.51	0.583	0.25	0.0191	-0.628
CGUUUAGUAGAUGAUUGUGCAUUGUUUCAAAAUG [hsa-mir-224]	-0.183	-0.502	-0.358	-0.714	-0.24
CUAAAUGGUACCCACUUUAUUUAG [hsa-mir-5687]	-0.639	-0.76	-0.0559	-0.627	-0.726
CUAACAGGCCCCUGUCACCAUUAG [hsa-mir-5579]	0.236	-0.073	-0.144	-0.463	-0.762
CUAAGCUAUGGACUGCUAUGGACUGCUAG [hsa-mir-4473]	0.578	0.172	0.196	-0.193	-0.249
CUAAUCUCUUAGCACUGAAGAUUAG [hsa-mir-4671]	-0.473	-0.125	-0.253	0.0266	-0.0111
CUACAUCGUGGAAGCCAGCACCAUGCAG [hsa-mir-455]	0.773	0.826	-0.206	0.731	0.169
CUACUAGUUUGUAGUAGUUCGUAGCAG [hsa-mir-3919]	0.637	-0.197	0.295	-0.438	0.56
CUACUCAAGGCUAG [hsa-mir-4266]	-0.0352	1.35	0.132	1.32	-0.163
CUAGUAUGUCUCAUCCCCUACUAG [hsa-mir-151a]	0.072	-0.343	-0.201	-0.144	0.0263
CUAUCCUUCCCUUGGAAAAUGAUCUGAG [hsa-mir-4770]	-5.12e-05	-0.245	-0.189	-0.188	-0.925
